Measured values as given in patent US20030040012A1, “Method of detecting protein-protein interaction” (priority 2000, published 2003).

T1: Npw38 (Homo sapiens, UniProt O60828, W52A)
T1 construct: expressed in transfected cells; host or cells: COS7 (monkey kidney)
T1 sequence (O60828 2-265 W52A): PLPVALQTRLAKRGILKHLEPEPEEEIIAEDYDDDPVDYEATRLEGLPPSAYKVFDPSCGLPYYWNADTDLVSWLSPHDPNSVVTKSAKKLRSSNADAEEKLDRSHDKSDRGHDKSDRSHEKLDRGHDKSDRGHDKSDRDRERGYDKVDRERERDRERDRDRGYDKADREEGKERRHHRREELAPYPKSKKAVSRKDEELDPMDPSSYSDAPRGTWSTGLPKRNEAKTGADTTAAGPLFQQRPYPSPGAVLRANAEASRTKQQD

T2: binding of Npw38 to NpwBP(P2)-GFP (Homo sapiens, UniProt O60828)
T2 construct: expressed in transfected cells; host or cells: COS7 (monkey kidney)
T2 sequence (O60828 1-265): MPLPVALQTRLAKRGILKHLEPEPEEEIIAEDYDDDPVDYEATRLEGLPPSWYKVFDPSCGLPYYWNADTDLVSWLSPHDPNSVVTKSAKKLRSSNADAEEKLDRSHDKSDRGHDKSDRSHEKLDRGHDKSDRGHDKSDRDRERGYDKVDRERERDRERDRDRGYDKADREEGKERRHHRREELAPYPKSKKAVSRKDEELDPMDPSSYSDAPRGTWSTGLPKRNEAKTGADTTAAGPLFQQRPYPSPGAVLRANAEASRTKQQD


Key:
Npw38 = biological target: T1, Npw38; assay: Npw38-NpwBP binding detection by intracellular localization of GFP fluorescence in COS7 cells; assay type: cell-based; conditions: expressed in place of HA-Npw38 together with NpwBP-GFP
Experimental: Monkey kidney-derived, cultured cell COS7 was incubated in a 10% fetal calf serum-containing Dulbecco's modified Eagle's medium (DMEM) in the presence of 5% CO2 at 37° C. COS7 cells of 1=10^5 were placed in a 6-well plate (from Nunk, having a well diameter of 3 cm), and further incubated therein in the presence of 5% CO2 at 37° C. for 22 hours. After the medium was removed, the cell sur were washed with a phosphate buffer solution (PBS), and then further washed with a 50 mM Tris-HCl (pH 7.5)-containing DMEM. To these cells, added was a suspension comprising 1 μl of a plasmid suspension, 0.6 ml of DMEM and 3 μl of TRANSFECTAM™ (from IBF), and incubated in the presence of 5% CO2 at 37° C. for 12 hours. Then, the cells were washed with PBS, and fixed with 4% peraformaldehyde-containing PBS at room temperature for 10 minutes. The thus-fixed cells were washed with PBS, then treated with 0.2% Triton X-100, and thereafter blocked with 5% milk PBS. This was reacted with an anti-HA antibody for 45 minutes, then washed with PBS, and reacted with a rhodamine-binding secondary antibody for 45 minutes. […]
First, pKA1-NpwBP(P1)-GFP or pKA1-NpwBP(P2)-GFP was singly introduced into COS7 cells, and the localization of these fusion proteins in the cells was checked through fluorescence microscopy based on the green fluorescence of GFP as the index thereof. […]

[1] = biological target: T2, binding of Npw38 to NpwBP(P2)-GFP; assay: Detection of binding-inhibitory action on intranuclear localization of NpwBP(P2)-GFP; assay type: cell-based; conditions: COS7 cells, NpwBP of more than NpwBP(P2)-GFP co-expressed along with Npw38 and NpwBP(P2)-GFP
Experimental: Monkey kidney-derived, cultured cell COS7 was incubated in a 10% fetal calf serum-containing Dulbecco's modified Eagle's medium (DMEM) in the presence of 5% CO2 at 37° C. COS7 cells of 1=10^5 were placed in a 6-well plate (from Nunk, having a well diameter of 3 cm), and further incubated therein in the presence of 5% CO2 at 37° C. for 22 hours. After the medium was removed, the cell sur were washed with a phosphate buffer solution (PBS), and then further washed with a 50 mM Tris-HCl (pH 7.5)-containing DMEM. To these cells, added was a suspension comprising 1 μl of a plasmid suspension, 0.6 ml of DMEM and 3 μl of TRANSFECTAM™ (from IBF), and incubated in the presence of 5% CO2 at 37° C. for 12 hours. Then, the cells were washed with PBS, and fixed with 4% peraformaldehyde-containing PBS at room temperature for 10 minutes. The thus-fixed cells were washed with PBS, then treated with 0.2% Triton X-100, and thereafter blocked with 5% milk PBS. This was reacted with an anti-HA antibody for 45 minutes, then washed with PBS, and reacted with a rhodamine-binding secondary antibody for 45 minutes.
In the system of the above (2), NpwBP of more than NpwBP(P2)-GFP was co-expressed in the cells along with Npw38 and NpwBP(P2)-GFP. In this case, the intranuclear localization of NpwBP(P2)-GFP was inhibited. […]

intranuclear localization of the green fluorescence of NpwBP-GFP (Npw38) | intranuclear localization of NpwBP(P2)-GFP [1] | Molecule
no intranuclear localization | – | Npw38(W52A): a WW domain variant of Npw38 (protein) MPLPVALQTRLAKRGILKHLEPEPEEEIIAEDYDDDPVDYEATRLEGLPPSAYKVFDPSCGLPYYWNADTDLVSWLSPHDPNSVVTKSAKKLRSSNADAEEKLDRSHDKSDRGHDKSDRSHEKLDRGHDKSDRGHDKSDRDRERGYDKVDRERERDRERDRDRGYDKADREEGKERRHHRREELAPYPKSKKAVSRKDEELDPMDPSSYSDAPRGTWSTGLPKRNEAKTGADTTAAGPLFQQRPYPSPGAVLRANAEASRTKQQD
– | inhibited | NpwBP: nuclear protein (SEQ ID NO: 2) that binds to Npw38 (protein, listed as Homo sapiens) MGRRSTSSTKSGKFMNPTDQARKEARKRELKKNKKQRMMVRAAVLKMKDPKQIIRDMEKLDEMEFNPVQQPQLNEKVLKDKRKKLRETFERILRLYEKENPDIYKELRKLEVEYEQKRAQLSQYFDAVKNAQHVEVESIPLPDMPHAPSNILIQDIPLPGAQPPSILKKTSAYGPPTRAVSILPLLGHGVPRLPPGRKPPGPPPGPPPPQVVQMYGRKVGFALDLPPRRRDEDMLYSPELAQRGHDDDVSSTSEDDGYPEDMDQDKHDDSTDDSDTDKSDGESDGDEFVHRDNGERDNNEEKKSGLSVRFADMPGKSRKKKKNMKELTPLQAMMLRMAGQEIPEEGREVEEFSEDDDEDDSDDSEAEKQSQKQHKEESHSDGTSTASSQQQAPPQSVPPSQIQAPPMPGPPPLGPPPAPPLRPPGPPTGLPPGPPPGAPPFLRPPGMPGLRGPLPRLLPPGPPPGRPPGPPPGPPPGLPPGPPPRGPPPRLPPPAPPGIPPPRPGMMRPPLVPPLGPAPPGLFPPAPLPNPGVLSAPPNLIQRPKADDTSAATIEKKATATISAKPQITNPKAEITRFVPTALRVRRENKGATAAPQRKSEDDSAVPLAKAAPKSGPSVPVSVQTKDDVYEAFMKEMEGLL
